The experiment deals with human PD-L1 (human) (UniProt Q9NZQ7). The experiment is described as follows: FACS blocking of human PD-1/PD-L1 binding.

As a reminder, the IC50 is the point on the concentration scale where inhibition reaches its midpoint.

Sequence of human PD-L1 (human) (Q9NZQ7 19-290): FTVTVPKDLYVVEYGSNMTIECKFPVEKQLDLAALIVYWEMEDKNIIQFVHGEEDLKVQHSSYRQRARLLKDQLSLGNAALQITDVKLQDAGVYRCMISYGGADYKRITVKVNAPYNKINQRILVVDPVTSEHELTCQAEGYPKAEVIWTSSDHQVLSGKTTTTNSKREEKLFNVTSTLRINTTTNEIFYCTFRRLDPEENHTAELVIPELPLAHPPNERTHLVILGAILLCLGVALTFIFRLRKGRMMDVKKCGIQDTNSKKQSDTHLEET

As to KN035, the IC50 was found to be 0.208 µg/mL.

These data come from US20250197503A1, “ANTI-HUMAN PD-Ll AND TLR7 DOUBLE-TARGETING NANOBODY CONJUGATE DRUG AND USE THEREOF IN RESISTING TUMOR” (SHANGHAI INSTITUTE OF MATERIA MEDICA , CHINESE ACADEMY OF …, priority 2022, published 2025).
